The text below walks through data of paper PMC4892509, “Binding of the Fkh1 Forkhead Associated Domain to a Phosphopeptide within the Mph1 DNA Helicase Regulates Mating-Type Switching in Budding Yeast” (PLoS Genetics, 2016).

Non-standard residues stand in square brackets, D forms with d. No end group written: not given here. *: point of attachment. 5FAM = O=C1OC2(c3ccc(O)cc3Oc3cc(O)ccc32)c2ccc(C(=O)*)cc21; pT = C[C@@H](OP(=O)(O)O)[C@H](N)C(=O)O; Ahx = NCCCCCC(=O)O

Experiment [1] deals with Fkh1 (UniProt P40466). The experiment can be described thus: fluorescence anisotropy titration.
The target of experiment [2] is T1, Fkh1-6xHis (Saccharomyces cerevisiae, UniProt P40466).
T1 construct: C-terminally His-tagged full length Fkh1 protein was expressed from a pET28b expression vector in Rosetta E. coli; made in house; host or cells: Rosetta E. coli (pET28b)
T1 sequence (P40466 1-484): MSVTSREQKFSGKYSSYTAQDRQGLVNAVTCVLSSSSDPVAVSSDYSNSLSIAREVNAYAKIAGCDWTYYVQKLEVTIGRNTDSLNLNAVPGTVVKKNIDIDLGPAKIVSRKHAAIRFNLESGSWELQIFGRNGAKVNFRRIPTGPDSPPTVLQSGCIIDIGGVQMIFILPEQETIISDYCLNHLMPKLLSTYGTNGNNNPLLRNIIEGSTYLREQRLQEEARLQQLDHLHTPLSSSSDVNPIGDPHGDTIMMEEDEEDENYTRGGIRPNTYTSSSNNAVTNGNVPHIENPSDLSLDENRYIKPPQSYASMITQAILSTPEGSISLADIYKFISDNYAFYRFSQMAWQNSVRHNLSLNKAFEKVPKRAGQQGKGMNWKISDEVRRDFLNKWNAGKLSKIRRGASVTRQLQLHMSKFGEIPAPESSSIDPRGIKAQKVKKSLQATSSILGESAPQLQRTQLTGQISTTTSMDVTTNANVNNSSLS
Nature of the experiment: Fluorescence anisotropy binding of Mph1-derived peptides to recombinant Fkh1-6xHis.
Procedure: To this end, recombinant Fkh1-6xHis was purified from E. coli and its ability to bind an 18-residue peptide representing Mph1(772–789) was assessed by fluorescence anisotropy (Fig 6).
(B) Peptide binding assay of Fkh1-6xHis and Mph1-derived peptides using fluorescence anisotropy. Binding reactions contained the indicated concentration of purified His-tagged Fkh1 and 3 nM 5-carboxyfluorescein labeled Mph1-derived peptide (5cf-aha-[sequence]) with threonines phosphorylated or unmodified, as indicated.
Peptides (constant final concentration of 3 nM) were mixed with titrations of purified Fkh1-6xHis protein in binding buffer (50 mM HEPES pH 7.0, 200 mM KCl, 10% glycerol, 5 mM BME, 1 mM EDTA, 1 mM EGTA, 5 mM MgOAc, 0.02% NP-40, protease inhibitors (Calbiotech)). Polarization at each concentration was measured in triplicates in 384-well polystyrene black microplates (Thermo Fisher Scientific #262260) by a Biotek Synergy H4 multimode plate reader (light source: xenon flash, offset from top: 7 mm, sensitivity: 60%, excitation: 485/20 nm, emission: 528/20 nm, both parallel and perpendicular, normal read speed). Fraction bound (Fb) at each concentration was calculated based on the corresponding polarization values (P): Fbc = (Pc—Pmin) / (Pmax—Pmin), where Pmin is the polarization value of the no-protein control and Pmax is the polarization value of the saturation value for that peptide. […]

Experiment [3] concerns the target T2, Recombinant Fkh1-6xHis (S. cerevisiae, UniProt P40466 1-484).
T2 construct: Fkh1, S. cerevisiae, full length; also called His-tagged Fkh1; purified Fkh1; source: Rosetta E. coli (pET28b), purified (nickel chromatography); not shown: 6xHis, C-terminal, kept
T2 sequence (looked up): T1 sequence (P40466 1-484)
Nature of the experiment: fluorescence polarisation; fluorescence anisotropy: 3 nM 5-carboxyfluorescein labeled peptide, titration of purified Fkh1-6xHis; 50 mM HEPES pH 7.0, 200 mM KCl, 10% glycerol, 5 mM BME, 1 mM EDTA, 1 mM EGTA, 5 mM MgOAc, 0.02% NP-40; Fb = [protein] / ([protein] + Kd). To be noted: both partners purified.

In the case of “Mph1 772-789 (from UniProt P40562) pT776 peptide”, in experiment [1] (reference: unphosphorylated peptide, sites T776), the “binding against the reference” value is listed as “stronger”.
On to `CC(C)C[C@H](NC(=O)[C@H](CO)NC(=O)[C@H](CO)NC(=O)[C@H](CO)NC(=O)[C@H](C)NC(=O)[C@H](CCC(=O)O)NC(=O)[C@H](CCC(=O)O)NC(=O)[C@@H](NC(=O)[C@H](CO)NC(=O)[C@H](CC(=O)O)NC(=O)[C@H](CC(N)=O)NC(=O)[C@H](CCC(=O)O)NC(=O)CCCCCNC(=O)c1ccc2c(c1)C(=O)OC21c2ccc(O)cc2Oc2cc(O)ccc21)[C@@H](C)O)C(=O)N[C@@H](CCC(=O)O)C(=O)N[C@H](C(=O)N[C@@H](CCC(=O)O)C(=O)N[C@@H](CC(=O)O)C(=O)N[C@@H](CCC(=O)O)C(=O)N[C@@H](CCC(=O)O)C(=O)O)[C@@H](C)O` [Non-phosphorylated], for which the “fold reduced affinity for Fkh1 (non-phosphorylated vs peptide phosphorylated on both T776 and T785)” value in experiment [2] (relative to peptide phosphorylated on both T776 and T785) was > 100 -fold.
For “Mph1 772-789 (from UniProt P40562) pT785 peptide”, in experiment [1] (reference: unphosphorylated peptide, sites T785), the “binding against the reference” value is listed as “stronger”.
For `CC(C)C[C@H](NC(=O)[C@H](CO)NC(=O)[C@H](CO)NC(=O)[C@H](CO)NC(=O)[C@H](C)NC(=O)[C@H](CCC(=O)O)NC(=O)[C@H](CCC(=O)O)NC(=O)[C@@H](NC(=O)[C@H](CO)NC(=O)[C@H](CC(=O)O)NC(=O)[C@H](CC(N)=O)NC(=O)[C@H](CCC(=O)O)NC(=O)CCCCCNC(=O)c1ccc2c(c1)C(=O)OC21c2ccc(O)cc2Oc2cc(O)ccc21)[C@@H](C)OP(=O)(O)O)C(=O)N[C@@H](CCC(=O)O)C(=O)N[C@H](C(=O)N[C@@H](CCC(=O)O)C(=O)N[C@@H](CC(=O)O)C(=O)N[C@@H](CCC(=O)O)C(=O)N[C@@H](CCC(=O)O)C(=O)O)[C@@H](C)OP(=O)(O)O` [pT776 pT785], the “binding to purified Fkh1, result in words” value in experiment [2] (3 nM labeled peptide, pH 7.0) is given as “bound purified Fkh1 efficiently”.
“Mph1 772-789 (from UniProt P40562) pT776 pT785 peptide”: the “binding against the reference” value is “stronger” in experiment [1] (reference: pT776 peptide, sites T785) and “stronger” in experiment [1] (reference: pT785 peptide, sites T776).

B1: Mph1(772–789) peptide, non-phosphorylated (peptide)
peptide: {5FAM-Ahx}-ENDSTEEASSSLETEDEE
notes: Mph1, S. cerevisiae, 18-residue peptide representing Mph1(772–789); source: synthetic peptide
For B1, in experiment [3], the equilibrium dissociation constant (Kd) amounted to 271 µM.

B2: Mph1(772–789) peptide phosphorylated on both T776 and T785 (peptide)
peptide: {5FAM-Ahx}-ENDS[pT]EEASSSLE[pT]EDEE
notes: as for B1
As for B2, the dissociation constant (Kd) in experiment [3] was found to be 2.2 µM.
